{
  "source": "paper PMC5423696",
  "molecular_target": "LAMP1_(distal)-Fc (human)",
  "assay": "SPR",
  "data": [
    {"substance": "GP1_(LASV)-Fc (from UniProt P08669 75-237) (Fc fusion)", "values": [
      {"measurement": "Kd", "result": 15, "unit": "nM"}
    ]}
  ]
}
